Bridges are numbered along the chain shown (N, C = ends). Where no end group is shown, it is not given here. L1 = not defined here; L3 = not defined here; L4 = not defined here; L5 = not defined here
T1: GPR10 (UniProt P49683 1-370, limits assumed)
T1 sequence (looked up): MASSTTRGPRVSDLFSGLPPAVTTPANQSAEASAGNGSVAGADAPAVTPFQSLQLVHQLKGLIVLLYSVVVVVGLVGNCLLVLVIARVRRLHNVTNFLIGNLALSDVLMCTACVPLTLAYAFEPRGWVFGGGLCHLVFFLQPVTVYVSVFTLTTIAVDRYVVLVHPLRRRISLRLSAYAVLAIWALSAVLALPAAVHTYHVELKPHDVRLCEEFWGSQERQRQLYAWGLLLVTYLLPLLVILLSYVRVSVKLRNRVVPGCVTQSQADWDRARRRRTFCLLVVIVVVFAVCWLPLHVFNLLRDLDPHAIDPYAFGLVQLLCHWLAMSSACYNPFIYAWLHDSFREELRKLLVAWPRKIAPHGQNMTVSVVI


What follows are binders tested against T1, GPR10 (assay: cell-based or functional assay).

TPDINCAWYTGRCIRPVGRF-NH2 (linker 6-13 via L1; reading uncertain) [Conjugate 208] and TPDICPAWYTGCGIRPVGRF-NH2 (linker 5-12 via L1; reading uncertain) [Conjugate 207] are within 1.5-fold of each other in “GPR10 EC50” value: 15 nM for the first, 13 nM for the second.

Compared with TPDINPAWYCGRGIRPCGRF-NH2 (linker 10-17 via L1; reading uncertain) [Conjugate 212], SRAHQHSMETRTPDCNPAWYTCRGIRPVGRF-NH2 (cysteine pairing not given here) [SEQ ID NO 93] is lower in “GPR10 EC50” value: greater than 10000 nM for the first, 17 nM for the second.

TPDICPAWYTGCGIRPVGRF-NH2 (linker 5-12 via L3; reading uncertain) [Conjugate 219] and TCDINPAWCTGRGIRPVGRF-NH2 (cysteine pairing not given here) [SEQ ID NO 103] are within 1.5-fold of each other in “GPR10 EC50” value: 25 nM for the first, 33 nM for the second.

Compared with SRAHQHSMCTRTPDICPAWYTGRGIRPVGRF-NH2 (linker 9-16 via L1; reading uncertain) [Conjugate 227], CRAHQHSCETRTPDINPAWYTGRGIRPVGRF-NH2 (linker 1-8 via L5; reading uncertain) [Conjugate 235] is 3.9-fold higher in “GPR10 EC50” value: 85 nM for the first, 330 nM for the second.

Going from TPDINPAWCTGRGIRCVGRF-NH2 (cysteine pairing not given here) [SEQ ID NO 87] to SRAHQHSMETRTPDCNPAWYTCRGIRPVGRF-NH2 (linker 15-22 via L3; reading uncertain) [Conjugate 242], the “GPR10 EC50” value falls from 120 nM to 6.1 nM (20-fold).

Going from TPDINPAWYCGRGIRPCGRF-NH2 (cysteine pairing not given here) [SEQ ID NO 88] to TPDINPACYTGRGICPVGRF-NH2 (cysteine pairing not given here) [SEQ ID NO 86], the “GPR10 EC50” value rises from 1600 nM to 6800 nM (4.2-fold).

Going from CRAHQHSCETRTPDINPAWYTGRGIRPVGRF-NH2 (linker 1-8 via L4; reading uncertain) [Conjugate 234] to TPDINPCWYTGRGCRPVGRF-NH2 (cysteine pairing not given here) [SEQ ID NO 85], the “GPR10 EC50” value falls from 230 nM to 33 nM (7-fold).

Going from CRAHQHSCETRTPDINPAWYTGRGIRPVGRF-NH2 (linker 1-8 via L1; reading uncertain) [Conjugate 225] to TPDINPAWYTGRGIRPVGRF-NH2 [SEQ ID NO 106], the “GPR10 EC50” value falls from 24 nM to 13 nM (1.8-fold).

First: TPDCNPAWYTCRGIRPVGRF-NH2 (linker 4-11 via L3; reading uncertain) [Conjugate 216]
Second: TPDCNPAWYTCRGIRPVGRF-NH2 (linker 4-11 via L4; reading uncertain) [Conjugate 217]
The “GPR10 EC50” value of the first is 20-fold lower: 3.9 nM for the first, 77 nM for the second.

CRAHQHSCETRTPDINPAWYTGRGIRPVGRF-NH2 (cysteine pairing not given here) [SEQ ID NO 89] and TCDINPAWCTGRGIRPVGRF-NH2 (linker 2-9 via L1; reading uncertain) [Conjugate 204] are within 1.5-fold of each other in “GPR10 EC50” value: 16 nM for the first, 12 nM for the second.

Going from SRAHQHSMETRTPDCNPAWYTCRGIRPVGRF-NH2 (linker 15-22 via L1; reading uncertain) [Conjugate 229] to TPDINPAWCTGRGIRCVGRF-NH2 (linker 9-16 via L1; reading uncertain) [Conjugate 211], the “GPR10 EC50” value rises from 10 nM to 160 nM (16-fold).

First: TPDCNPAWYTCRGIRPVGRF-NH2 (linker 4-11 via L1; reading uncertain) [Conjugate 206]
Second: TPCINPAWYCGRGIRPVGRF-NH2 (linker 3-10 via L1; reading uncertain) [Conjugate 205]
The “GPR10 EC50” value of the first is 2.9-fold lower: 7.3 nM for the first, 21 nM for the second.

First: TCDINPAWCTGRGIRPVGRF-NH2 (linker 2-9 via L4; reading uncertain) [Conjugate 214]
Second: TPCINPAWYCGRGIRPVGRF-NH2 (cysteine pairing not given here) [SEQ ID NO 104]
The “GPR10 EC50” value of the first is 14-fold higher: 230 nM for the first, 16 nM for the second.

First: SRAHQHSMETRTCDINPAWCTGRGIRPVGRF-NH2 (cysteine pairing not given here) [SEQ ID NO 92]
Second: TPDICPAWYTGCGIRPVGRF-NH2 (cysteine pairing not given here) [SEQ ID NO 83]
The “GPR10 EC50” value of the first is 2.4-fold lower: 18 nM for the first, 44 nM for the second.

TCDINPAWCTGRGIRPVGRF-NH2 (linker 2-9 via L3; reading uncertain) [Conjugate 213] and SRAHQHSMETRTCDINPAWCTGRGIRPVGRF-NH2 (linker 13-20 via L1; reading uncertain) [Conjugate 228] are within 1.5-fold of each other in “GPR10 EC50” value: 33 nM for the first, 40 nM for the second.

First: TPDINPACYTGRGICPVGRF-NH2 (linker 8-15 via L1; reading uncertain) [Conjugate 210]
Second: TPDINPCWYTGRGCRPVGRF-NH2 (linker 7-14 via L3; reading uncertain) [Conjugate 222]
The “GPR10 EC50” value of the first is 140-fold higher: 720 nM for the first, 5.2 nM for the second.

Compared with TPDINPCWYTGRGCRPVGRF-NH2 (linker 7-14 via L5; reading uncertain) [Conjugate 224], TPDINCAWYTGRCIRPVGRF-NH2 (cysteine pairing not given here) [SEQ ID NO 84] is lower in “GPR10 EC50” value: greater than 1000 nM for the first, 18 nM for the second.

TPDICPAWYTGCGIRPVGRF-NH2 (linker 5-12 via L5; reading uncertain) [Conjugate 221] and SRAHQHSMETRTCDINPAWCTGRGIRPVGRF-NH2 (linker 13-20 via L4; reading uncertain) [Conjugate 240] are within 1.5-fold of each other in “GPR10 EC50” value: 840 nM for the first, 630 nM for the second.

Compared with TPDINPCWYTGRGCRPVGRF-NH2 (linker 7-14 via L4; reading uncertain) [Conjugate 223], TCDINPAWCTGRGIRPVGRF-NH2 (linker 2-9 via L5; reading uncertain) [Conjugate 215] is lower in “GPR10 EC50” value: greater than 1000 nM for the first, 620 nM for the second.

First: CRAHQHSCETRTPDINPAWYTGRGIRPVGRF-NH2 (linker 1-8 via L3; reading uncertain) [Conjugate 233]
Second: SRAHQHSMCTRTPDICPAWYTGRGIRPVGRF-NH2 (cysteine pairing not given here) [SEQ ID NO 91]
The “GPR10 EC50” value of the first is 2.4-fold lower: 17 nM for the first, 41 nM for the second.

Compared with TPDICPAWYTGCGIRPVGRF-NH2 (linker 5-12 via L4; reading uncertain) [Conjugate 220], TPDCNPAWYTCRGIRPVGRF-NH2 (cysteine pairing not given here) [SEQ ID NO 105] is 61-fold lower in “GPR10 EC50” value: 610 nM for the first, 10 nM for the second.

First: TPDINPCWYTGRGCRPVGRF-NH2 (linker 7-14 via L1; reading uncertain) [Conjugate 209]
Second: TPDCNPAWYTCRGIRPVGRF-NH2 (linker 4-11 via L5; reading uncertain) [Conjugate 218]
The “GPR10 EC50” value of the first is 8.1-fold lower: 10 nM for the first, 81 nM for the second.

Compared with SRAHQHSMETRTCDINPAWCTGRGIRPVGRF-NH2 (linker 13-20 via L3; reading uncertain) [Conjugate 239], SRAHQHSMETRTCDINPAWCTGRGIRPVGRF-NH2 (linker 13-20 via L5; reading uncertain) [Conjugate 241] is 88-fold higher in “GPR10 EC50” value: 17 nM for the first, 1500 nM for the second.

Source: US20230071371A1 (Scripps Research, published 2023)
